Molecular target: MHC class II antigen on the Raji B cell line
Test: cell-based or functional assay

percent cytolysis of Raji (MHC class II+) cells by CTL expressing CD4:ζ: 5%
Substance: CD4:ζ (receptor)

Source: US7094599
